Laboratory results from US20160257751A1 (SORRENTO THERAPEUTICS, published 2016).

B1: C47A8 (antibody, V domains shown)
VH: QVQLVQSGAEVKKPGASVKVSCKASGYTFTSYYMHWVRQAPGQGLEWMGIINPSGGSTSYAQKFQGRVTMTRDTSTSTVYMELSSLRSEDTAVYYCARSTLWFSEFDYWGQGTLVTVSS
VL: QSVLTQPSSVSASPGQSITISCSGTSSDVGGHNYVSWYQQHPGKAPKLMIYDVTKRPSGVPDRFSGSKSGNTASLTVSGLQAEDEADYYCCSYAGSRVYVFGTGTKLTVL
notes: also called CD47A8
B2: C47A8-CQ (antibody, V domains shown)
VH: QVQLVQSGAEVKKPGASVKVSCKASGYTFTSYYMHWVRQAPGQGLEWMGIINPSGGSTSYAQKFQGRVTMTRDTSTSTVYMELSSLRSEDTAVYYCARSTLWFSEFDYWGQGTLVTVSS
VL: QSVLTQPSSVSASPGQSITISCSGTSSDVGGHNYVSWYQQHPGKAPKLMIYDVTKRPSGVPDRFSGSKSGNTASLTVSGLQAEDEADYYCQSYAGSRVYVFGTGTKLTVL
B3: C47A8-CS (antibody, V domains shown)
VH: QVQLVQSGAEVKKPGASVKVSCKASGYTFTSYYMHWVRQAPGQGLEWMGIINPSGGSTSYAQKFQGRVTMTRDTSTSTVYMELSSLRSEDTAVYYCARSTLWFSEFDYWGQGTLVTVSS
VL: QSVLTQPSSVSASPGQSITISCSGTSSDVGGHNYVSWYQQHPGKAPKLMIYDVTKRPSGVPDRFSGSKSGNTASLTVSGLQAEDEADYYCSSYAGSRVYVFGTGTKLTVL
B4: C47B10 (antibody, V domains shown)
VH: QVQLVQSGAEVKKPGASVKVSCKASGYTFTSYYMHWVRQAPGQGLEWMGIINPSGGSTSYAQKFQGRVTMTRDTSTSTVYMELSSLRSEDTAVYYCARSTLWFSEFDYWGQGTLVTVSS
VL: QSVLTQPASVSGSPGQSISISCTGTSSDVGGHNYVSWYQQHPGKAPKLMIYDVRNRPSGVSNRFSGSKSGSTASLTISGLQTEDEADYYCNSYTGSRTYVFGSGTKLTVL
notes: lambda light chain (captured with anti-human lambda); also called CD47B10

Molecular target: T1, human CD47 (human, UniProt Q08722 19-139, limits assumed, biotinylated in the ELISAs (site not stated))
T1 construct: also called biotinylated CD47; CD47 receptor
Test: SPR (BIACORE)

T1 sequence (Q08722 19-139 limits assumed): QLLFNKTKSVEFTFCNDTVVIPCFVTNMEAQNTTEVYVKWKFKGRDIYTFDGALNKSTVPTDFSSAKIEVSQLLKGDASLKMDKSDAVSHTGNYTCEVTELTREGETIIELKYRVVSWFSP

**Q.** B1 was tested. Which Kd did it give?
**A.** 82.3 nM

**Q.** What about the koff of the same binder?
**A.** 0.047 s⁻¹

**Q.** What about the kon of the same binder?
**A.** 576000 M⁻¹ s⁻¹

**Q.** For B2, which Kd is on record?
**A.** 156 nM

**Q.** What about the koff of the same binder?
**A.** 0.02 s⁻¹

**Q.** And the kon?
**A.** 129000 M⁻¹ s⁻¹

**Q.** Which Kd does the source give for B3 here?
**A.** 156 nM

**Q.** What about the koff of the same binder?
**A.** 0.034 s⁻¹

**Q.** What about the kon of the same binder?
**A.** 215000 M⁻¹ s⁻¹

**Q.** B4 was tested. Which Kd did it give?
**A.** 12.1 nM

**Q.** What about the koff of the same binder?
**A.** 0.00129 s⁻¹

**Q.** And the kon?
**A.** 106000 M⁻¹ s⁻¹
